Experiment: soluble on expression in E. coli; label from the status in PepcDB or PDB records
For “MTDVKNDVNVSSVVDADGLIEGNYDQVVESFDDMELKEELLRGIYGFGFEKPSAIQKRAIVPCTTGKDVIAQAQSGTGKTATFSVSILQRIDHEDPHVQALVMAPTRELAQQIQKVMSALGEYLNVNILPCIGGTSVRDDQRKLEAGIHVVVGTPGRVGDMINRNALDTSRIKMFVLDEADEMLSRGFKDQIYEVFRSMPQDVQVVLLSATMPSEVLDVTNRFMRNPIRILVKKDELTLEGIRQFYINVQKDEWKFDCLCDLYNVVNVTQAVIFCNTRRKVDTLTEKMTENQFTVSCLHGDMDQAERDTIMREFRSGSSRVLITTDILARGIDVQQVSLVINYDLPSNRENYIHRIGRSGRFGRKGVAINFVTENDARQLKEIESYYTTQIEEMPESIADLI”, the “soluble on expression in E. coli” value was “not soluble”. In the case of “MTDVPALEIKNLHKTFGQNEVLKGISLQAQKGDVISIIGSSGSGKSTFLRCINLLETPTAGEIWVKGELIQMKTTRQGTVQPAKEKQVQRIRSRLAMVFQSFNLWSHMTVLENVIEAPVHVLGVPKAQAIEQAERLLRKVGLYERKDYYPGHLSGGQQQRAAIARALAVEPEVMLFDEPTSALDPELVGEVLGVMRDLAEEGRTMLVVTHEMAFARDVSNHVMFLHQGKVEEQGKPEKLFKNPDSERLKQFISSIY”, the “soluble on expression in E. coli” value was “not soluble”. In the case of “MTDVYIAAGLRTPIGLVGKQFAKEQPEILGAKLINALQNKYPVPIDQVICGNTVGTGGNIGRLMTLYSHLGESVSALTVDMQCASAGAALSVGYAKIKAGMASNLLVGGIESSSLQPESVYASADWRQGAYKVAQFSPDSISPFAMIEGAERVAREHGFTKEYLNHWTLRSHQKASYCQEQALLADLILDLSGASDQGIRPRLSSKVLSKVPPILGEGHVISAANACLTHDAAAFLQLSSQPSAFKLIDVVEVAGDPQRSPLMVIKASQVLLEKHGLGMADMTAIEWNEAFAVIDGLFETHYPDLLDRYNIFGGALAYGHPYGASAAIIILHLMRALEIKNGRYGIAAIAAAGGQGFAVLLKYHKEFSHADKARILGKAMPK”, the “soluble on expression in E. coli” value was “not soluble”. For “MTDYLADVQKYDSSADEAVVNKIVRHLGIALRNKDSALVSASDPKELERVREKWCEKKLGVGGSDADAAIAATAKAMADDRSKSRVTFYYLVAKNLGKLQTL”, the “soluble on expression in E. coli” value was “not soluble”. For “MTEASEINLSDIKGPIDVNTPITNHRTALIQNYSTKPKLTYQTVFGVNGPLVIVHNVKFPMFNEIVKITLPNGQIRMGQVLESSKNKAVVQVFEGTTGVDAKFTTCEFTGDIFRSPVSLDMLGRIFNGSGKPIDKGPPVLPEDYLDINGQPINPFNRIYPEEMIQTGISAIDVMNSIARGQKIPIFSAAGLPHNEIAAQIVRQGGLVQLPGRNNETVNFAIVFAAMGVNMETARFFKQDFEECGSMDNVCLFLNLANDPTIERIITPRIALTAAEFFAYHCGKHVLVVLTDMSSYAEALREISAAREEVPGRRGFPGYMYTDLATIYERAGRVKGREGSITQIPILTMPNNDITHPIPDLTGYITEGQIYIDKQLHKRLIYPPIDVLPSLSRLMKSAVGEGMTREDHSDLSNQLYACYAMGKDVQAMKAVVGVEALSPDDLLYLEFLAKFEKNFIAQGRYENRTIVESLNIGWELLRIFPREMLKRIPETLLEKYYKRKKQ”, the “soluble on expression in E. coli” value was “not soluble”. In the case of “MTEHTSSYYAASANKYAPFDTLNESITCDVCVVGGGYTGLSSALHLAEAGFDVVVLEASRIGFGASGRNGGQLVNSYSRDIDVIEKSYGMDTARMLGSMMFEGGEIIRERIKRYQIDCDYRPGGLFVAMNDKQLATLEEQKENWVRYGNKQLELLDVNAIRREVASDRYTGALLDHSGGHIHPLNLAIGEADAIRLNGGRVYELSAVTQIQHTTPAVVRTANGQVTAKYVIVAGNAYLGDKVEPELAKRSMPCGTQVITTERLSEDLARSLIPKNYCVEDCNYLLDYYRLTADNRLLYGGGVVYGARNPDDVERLVVPKLLKTFPQLKGVKIDYRWTGNFLLTLSHMPQFGRLDTNIYYMQGYSGHGVTCTHLAGRLIAELLRGDAERFDAFANLPHYPFPGGRTLRVPFTAMGAAYYSLRDRLGV”, the “soluble on expression in E. coli” value was “not soluble”. With “MTEIQKPYDLKGRSLLKESDFTKAEFEGLIDFAITLKEYKKNGIKHHYLSGKNIALLFEKNSTRTRAAFTVASIDLGAHPEFLGKNDIQLGKKESVEDTAKVLGRMFDGIEFRGFSQQAVEDLAKFSGVPVWNGLTDDWHPTQMLADFMTIKENFGYLEGINLTYVGDGRNNIAHSLMVAGAMLGVNVRICTPKSLNPKEAYVDIAKEKASQYGGSVMITDNIAEAVENTDAIYTDVWVSMGEESEFEQRINLLKDYQVNQQMFDLTGKDSTIFLHCLPAFHDTNTLYGQEIYEKYGLAEMEVTDQIFRSEHSKVFDQAENRMHTIKAVMAATLGS” the “soluble on expression in E. coli” value was “not soluble”. In the case of “MTEKGRAIEEESFRIVDQEAGPHGFSPLEWPVVRRMIHATADFEYKALTRFSQGAVEAGLKAIQAGARILVDARMIACGLNPERLRLFGNEVVELLAHPEVVARAKATGGTRAEAAVAYAWEKGLLDGAIVGVGNAPTFLLALVEAIRQGARPALVLGMPVGFVNVLEAKRALMEAPVPWIVTEGRKGGSTLVVAALHALIRLAADGGVDTSRAYREG”, the “soluble on expression in E. coli” value was “soluble”. In the case of “MTEKLAVFTGKLAEAGVLNETQPLSMRLHLENIQAESDPESIVPLFSHGVILNILVEQLEESIPLSHLKKGTKVRFTVVGLPPMTMSIPPHVGGQAIELIEEI”, the “soluble on expression in E. coli” value was “not soluble”. For “MTELAQLQASTEQAAALLKAMSHPKRLLILCMLSGSPGTSAGELTRITGLSASATSQHLARMRDEGLINSQRDAQRILYSIKNEAVNAIIATLKNVYCP”, the “soluble on expression in E. coli” value was “not soluble”. For “MTEMSFLSSEVLVGDLMSPFDQSGLGAEESLGLLDDYLEVAKHFKPHGFSSDKAKAGSSEWLAVDGLVSPSNNSKEDAFSGTDWMLEKMDLKEFDLDALLGIDDLETMPDDLLTTLDDTCDLFAPLVQETNKQPPQTVNPIGHLPESLTKPDQVAPFTFLQPLPLSPGVLSSTPDHSFSLELGSEVDITEGDRKPDYTAYVAMIPQCIKEEDTPSDNDSGICMSPESYLGSPQHSPSTRGSPNRSLPSPGVLCGSARPKPYDPPGEKMVAAKVKGEKLDKKLKKMEQNKTAATRYRQKKRAEQEALTGECKELEKKNEALKERADSLAKEIQYLKDLIEEVRKARGKKRVP”, the “soluble on expression in E. coli” value was “soluble”. With “MTENNKLQTIEQQLVQEKNVSDNVLNKVRVLESQGNLELPNDYSPSNAMKQAWLQISQDNKLMSCNDTSKANALLDMVTQGLNPAKNQCYFIPYGNKMQLQRSYHGNVMMLKRDAGAQDVVAQVIYKGDTFKQEMGETGRIKAIKHEQDFFNIDKENIIGAYCTIVFNDGRDNYIEVMTIEQIKQAWMQSSMIKDEKALQNSKTHNNFKEEMAKKTVINRAAKRYINTSTDSNLFKYAQESEQRQRKEVLDAEVEENANQEQLDFEQPVLEEAQYTELENDKPIDVSDFEEIKEPATEKESEEEPF” the “soluble on expression in E. coli” value was “not soluble”. For “MTENNRLSVKLPGLDLKNPIIPASGCFGFGEEYAKYYDLNKLGSIMVKATTLHPRFGNPTPRVAETASGMLNAIGLQNPGLEVIMTEKLPWLNENFPELPIIANVAGSEEADYVAVCAKIGDAANVKAIELNISCPNVKHGGQAFGTDPEVAAALVKACKAVSKVPLYVKLSPNVTDIVPIAKAVEAAGADGLTMINTLMGVRFDLKTRQPILANITGGLSGPAIKPVALKLIHQVAQDVDIPIIGMGGVANAQDVLEMYMAGASAVAVGTANFADPFVCPKIIDKLPELMDQYRIESLESLIQEVKEGKK”, the “soluble on expression in E. coli” value was “soluble”. With “MTEPIFMVGARGCGMTTVGRELARALGYEFVDTDIFMQHTSGMTVADVVAAEGWPGFRRRESEALQAVATPNRVVATGGGMVLLEQNRQFMRAHGTVVYLFAPAEELALRLQASLQAHQRPTLTGRPIAEEMEAVLREREALYQDVAHYVVDATQPPAAIVCELMQTMRLPAA” the “soluble on expression in E. coli” value was “soluble”. For “MTERFDCHHCNESLFGKKYILREESPYCVVCFETLFANTCEECGKPIGCDCKDLSYKDRHWHEACFHCSQCRNSLVDKPFAAKEDQLLCTDCYSNEYSSKCQECKKTIMPGTRKMEYKGSSWHETCFICHRCQQPIGTKSFIPKDNQNFCVPCYEKQHAMQCVQCKKPITTGGVTYREQPWHKECFVCTACRKQLSGQRFTARDDFAYCLNCFCDLYAKKCAGCTNPISGLGGTKYISFEERQWHNDCFNCKKCSLSLVGRGFLTERDDILCPDCGKDI”, the “soluble on expression in E. coli” value was “soluble”. In the case of “MTESITRDSMQYDVVIVGAGPSGLSAAIKLKQLAEQNGREISVCVVEKGSEVGAHSLAGAVIDPIALNELISDWKEKGAPLTRTVTQDKVLFLTEKKAFNLPITPNFDNHGNYIVSLGEVVRWLAEQAENMGVEIYPGFAAAEVLYHEDGSVKGIATGNMGIGKDGEPTDSFQPGMELWAQQTLFAEGCRGSLSKQIIERFQLDQNSQPQTYGLGIKEVWEVPSEQHQPGLVVHSAGWPLDSKTYGGAFVYHFDDNKVAVGFVVGLDYQNPYLSPFEEFQRFKTHPEIRKTFEGGRRIAYGARSLIEGGLQSLPKLSFKGGILVGDAAGFLNMPRIKGIHTAMKSAMLAAEAVFPLLENLEEVEGFDSGKEAADYQQRFEQSWLYQELYAARNVRPSFKWGVYLGSIYTGIDQMIFRGKAPWTLKHHGKDNEQLKKAAACKPIDYPKPDGVLTFDRLSSVFLANLAHEENQPDHLVLNNPQTMIDVNYKEYASPETRYCPAGVYEIVEENGNPRLQINAANCVHCKTCDIKDPTQNITWICPEGASGPNYGGM”, the “soluble on expression in E. coli” value was “not soluble”. For “MTESLNRDLPVLLATLNKLSSDADRILLENREDIRKIAYNLSIVMEKVKDDLPVLVENLKELSVNLNTVVKNNKVNINKTLVSLRKTTENLSRASYKLDKILADLESGKGTLGKLLKDEELYENVNQGVKALGKAGKVVEKTQLYIGLRGELYREGDSKGILSVRLVPDRDKYYLLEVVGDSRGRVYREEYLDGREVVKKEFKPEFTLQYARNFSLFGRTLTLRGGLKENTGGVGADYYIYRDKYLFADLWDFGRKDRPQDKDLKPNLQIGIHWYINRNLYVRFGGDDLLNSKLRGFFGGVGLEFVDEDLKYLLGGIGVPIR”, the “soluble on expression in E. coli” value was “not soluble”. In the case of “MTEVEKSRSGRIVKRKVFADFQQLDDDLKSITTEELRESASESKKLRLGPTRRSCRNIPTNYEELKAKTDAGIIPETVYYRASNNSMYIPSITADMLKNDGNDLTVQTRSDKYFKYNRVRQSTKIDYAEPEKVYDIIYAVRKRPILWDQRLICHRNSNLSRRAWDQLDLELGIDEEYPLARRKQIWKSKRDYFVSAVNAANLRKWIYADALEFYRPMINFRTTFCLRPTVAQPSQSVHDKLVLADKNIQCTPGDKKNVLTFLLKSLYDTGMSSPEMMAEHGLEILKIFKKNAESSNLKLN”, the “soluble on expression in E. coli” value was “not soluble”. With “MTFFFVFLALLSLLAFVIRKAHRNTYEAVLHKVQVGRSEDGDGAIRILQLSDLHLEKLSITPDDLYEKLKEEEIDLIALTGDFLDREESIAKLGPYLAALNALKPTYGMYAVFGNHDYVLQGEPFARLKATLEAHGCVVLQNETKTITVNGQTVNIIGIDDFYTGRSDIEKAYAGVKDGISLVLTHDPDIVPHMKDYHFDYLLSGHFHGGQIHWPKPYHLAKMSKTLTERNMIKGYHEWEGKPFYINEGLGQTGVNIRIGSKPEVTLHLLALPSRREAVKAV” the “soluble on expression in E. coli” value was “not soluble”. For “MTFQETISAYIQERYQITPDFPFKKHPDYLVFRHPRNAKWFALIMPLDAQLLGATENKQLTILTVKLAPELIALLKNQPGYFPAYHMNKEHWLSLSEEIPLSQVFSFIDESYQRSY”, the “soluble on expression in E. coli” value was “not soluble”. For “MTGCSHRFYYSHMIQTSVRSFEVGEDLASMAVDERISLLRSRMQSISKSGDFSLDYNCKTADKNIIPLSDPLSHVLPWGGLPRG”, the “soluble on expression in E. coli” value was “not soluble”. For “MTGKKRSASSSRWLQEHFSDKYVQQAQKKGLRSRAWFKLDEIQQSDKLFKPGMTVVDLGAAPGGWSQYVVTQIGGKGRIIACDLLPMDPIVGVDFLQGDFRDELVMKALLERVGDSKVQVVMSDMAPNMSGTPAVDIPRAMYLVELALEMCRDVLAPGGSFVVKVFQGEGFDEYLREIRSLFTKVKVRKPDSSRARSREVYIVATGRKP”, the “soluble on expression in E. coli” value was “soluble”.

Reference: the DeepSol protein solubility set
